The target in this test is CD40 on human B cells (human, UniProt P25942). Nature of the test: cell-based or functional assay.

B1: high density, membrane bound mouse CD40 ligand (ligand)
chain: MIETYSQPSPRSVATGLPASMKIFMYLLTVFLITQMIGSVLFAVYLHRRLDKVEEEVNLHEDFVFIKKLKRCNKGEGSLSLLNCEEMRRQFEDLVKDITLNKEEKKENSFEMQRGDEDPQIAAHVVSEANSNAASVLQWAKKGYYTMKSNLVMLENGKQLTVKREGLYYVYTQVTFCSNREPSSQRPFIVGLWLKPSSGSERILLKAANTHSSSQLCEQQSVHLGGVFELQAGASVFVNVTEASQVIHRVGFSSFGLLKL
For B1, the “expansion of human B cells grown with hdmb CD40 ligand as described for the mouse cells” value is about 100 fold.

These data come from patent publication US5817516, “Methods for proliferating and differentiating B cells with high density membrane CD40 ligand” (Boehringer Ingelheim Pharmaceuticals, Inc., dated 1998).
